Laboratory results published in the Human Domainome abundance scans (Beltran et al. 2025).
± gives the uncertainty stated by the source.

B1: Homeobox protein cut-like 2, residues 895 to 963; numbered along this chain, O14529 (parent)
chain: EVDTLELTRQVKEKLAKNGICQRIFGEKVLGLSQGSVSDMLSRPKPWSKLTQKGREPFIRMQLWLSDQL
B2: Gamma-crystallin S, residues 96 to 176; numbered along this chain, P22914 (parent)
chain: IQIFEKGDFSGQMYETTEDCPSIMEQFHMREIHSCKVLEGVWIFYELPNYRGRQYLLDKKEYRKPIDWGAASPAVQSFRRI

Variants of: B1
Assay: abundance fitness (aPCA) (normalised: wild type 0, dead -1); higher = more abundant; growth selection in yeast, the domain comes from the species named
Details: Homo sapiens

Variant	abundance fitness
T8Q	-0.333 ± 0.039
I24G	-0.347 ± 0.042
I24R	-0.093 ± 0.034
I24N	-0.204 ± 0.079
I24F	0.143 ± 0.056
I24W	0.103 ± 0.034
R9D	-0.21 ± 0.059
R9M	0.006 ± 0.036
R9Y	-0.261 ± 0.059
F58A	-0.917 ± 0.06
F58K	-1.11 ± 0.18
S66N	0.189 ± 0.076
S66Y	-0.001 ± 0.089
S66A	-0.045 ± 0.069
S66T	-0.008 ± 0.032
S66W	-0.08 ± 0.052
S42K	0.009 ± 0.044
S42F	-0.167 ± 0.031
R43I	-0.329 ± 0.066
R43M	-0.224 ± 0.047
R43N	-0.03 ± 0.078
Q62Y	-0.278 ± 0.17
K45F	-0.243 ± 0.035
K45H	-0.288 ± 0.083

Variant	abundance fitness
W47G	-1.01 ± 0.14
S38Q	0.03 ± 0.025
S38N	0.012 ± 0.027
S38R	0.024 ± 0.028
S38H	0.005 ± 0.03
P44F	-0.105 ± 0.045
P44M	-0.196 ± 0.05
K14F	0.102 ± 0.056
K14H	-0.009 ± 0.062
V29D	-0.476 ± 0.07
V29F	-0.174 ± 0.048
V29M	-0.104 ± 0.034
Q34L	-0.003 ± 0.028
Q34E	-0.254 ± 0.22
Q34W	0.088 ± 0.15
Q34M	-0.06 ± 0.041
D39I	-0.26 ± 0.13
L41H	-0.37 ± 0.05
L41Q	-0.303 ± 0.037
L41W	-0.25 ± 0.055
L15V	-0.154 ± 0.027
L15K	0.029 ± 0.038
L15T	-0.343 ± 0.32
L32C	-0.136 ± 0.052

Variant	abundance fitness
L32H	-0.231 ± 0.063
L32F	-0.141 ± 0.028
P57T	0.017 ± 0.033
W64K	-0.899 ± 0.07
W64L	-0.822 ± 0.047
Q68R	-0.057 ± 0.044
E6A	-0.123 ± 0.052
E6Y	-0.158 ± 0.059
E6Q	-0.258 ± 0.12
P46L	0.026 ± 0.032
P46K	-0.095 ± 0.071
P46H	-0.077 ± 0.05
P46N	-0.223 ± 0.049
V37H	-0.378 ± 0.048
V37W	-0.061 ± 0.038
V37M	-0.227 ± 0.051
V37D	-0.397 ± 0.093
V37S	-0.232 ± 0.032
V37C	-0.031 ± 0.038
N18G	-0.098 ± 0.058
N18E	0.045 ± 0.063
E27Q	-0.007 ± 0.033
E27D	-0.162 ± 0.046
K17S	-0.208 ± 0.051

Variant	abundance fitness
K17R	-0.089 ± 0.055
K17W	-0.269 ± 0.053
S36H	-0.062 ± 0.036
S36T	0.002 ± 0.028
S36M	-0.024 ± 0.028
S36D	0.134 ± 0.051
T4K	-0.14 ± 0.035
G54I	0.046 ± 0.049
G54M	0.004 ± 0.039
D67P	-0.209 ± 0.077
D67E	-0.017 ± 0.12
D67V	-0.549 ± 0.088
L50E	-1.11 ± 0.11
L69W	-0.137 ± 0.044
L69F	-0.083 ± 0.054
G31Q	-0.213 ± 0.064
G31F	-0.317 ± 0.049
D3K	-0.203 ± 0.032
D3I	-0.541 ± 0.06
R23F	-0.009 ± 0.056
R23W	-0.154 ± 0.044
R23M	-0.207 ± 0.034
R23S	-0.101 ± 0.035
I20V	-0.201 ± 0.036

Variant	abundance fitness
I20F	-0.058 ± 0.04
R60F	-1.08 ± 0.14
R60T	-0.209 ± 0.033
R60M	-0.38 ± 0.042
R60E	-0.631 ± 0.19
V2Y	-0.152 ± 0.069
V2S	-0.019 ± 0.033
Q52V	-0.034 ± 0.041
Q52Y	-0.073 ± 0.15
Q52L	-0.025 ± 0.032
L7E	0.016 ± 0.051
L7W	-0.215 ± 0.031
L7P	-0.103 ± 0.036
L7Q	-0.124 ± 0.042
L7V	-0.023 ± 0.032
L7M	0.055 ± 0.037
G35H	-0.043 ± 0.04
G35I	-0.215 ± 0.062
G35L	-0.03 ± 0.024
G19K	0.009 ± 0.041
G19H	-0.374 ± 0.33
L5F	0.025 ± 0.042
L5N	0.046 ± 0.058
L30V	-0.275 ± 0.03

Variant	abundance fitness
L30W	-0.21 ± 0.033
L30T	-0.536 ± 0.11
L30R	-0.18 ± 0.037
L63G	-0.19 ± 0.2
L63T	-0.003 ± 0.038
K49P	-0.731 ± 0.033
M61G	-0.735 ± 0.055
M61Y	-1 ± 0.18
E1A	-0.122 ± 0.054
E1C	0.037 ± 0.17
K12P	-0.244 ± 0.06
G26L	-0.162 ± 0.028
G26R	-0.295 ± 0.042
G26I	-0.284 ± 0.05
G26E	-0.397 ± 0.073
G26D	-0.306 ± 0.084
T51C	-0.375 ± 0.26
T51Y	-0.011 ± 0.056
C21G	-0.062 ± 0.036
C21W	-0.104 ± 0.035
C21K	-0.034 ± 0.039
R55C	-0.625 ± 0.12
R55L	-0.486 ± 0.029
R55Y	-0.76 ± 0.087

Variant	abundance fitness
R55H	-0.654 ± 0.078
R55A	-0.511 ± 0.039
K28N	-0.242 ± 0.049
K28A	-0.19 ± 0.04
K28C	-0.293 ± 0.055
A16M	-0.048 ± 0.037
A16F	-0.198 ± 0.058
Q22T	-0.151 ± 0.059
Q22K	-0.095 ± 0.064
Q22E	-0.011 ± 0.061
I59G	-0.315 ± 0.064
I59L	-0.011 ± 0.031
I59Y	-0.059 ± 0.059
I59Q	0.031 ± 0.036
E13T	-0.144 ± 0.05
E13M	-0.008 ± 0.031
E13R	-0.101 ± 0.041
E13L	-0.138 ± 0.024
E13Q	-0.248 ± 0.053
L65Y	-0.56 ± 0.053
L65H	-0.696 ± 0.08
V11F	-0.239 ± 0.062
V11D	-0.065 ± 0.073
V11C	-0.465 ± 0.083

Variant	abundance fitness
V11Y	-0.326 ± 0.15
K53G	-0.309 ± 0.045
K53S	0.04 ± 0.047
K53E	-0.017 ± 0.05
K53M	-0.373 ± 0.098
S33N	-0.003 ± 0.069
S33L	-0.057 ± 0.03
E56W	-0.314 ± 0.039
E56S	-0.203 ± 0.036
E56Y	-0.248 ± 0.079
E56T	-0.22 ± 0.046
E56M	-0.213 ± 0.059
E56H	-0.446 ± 0.077
E56G	-0.245 ± 0.041
F25G	-0.9 ± 0.064
F25N	-0.803 ± 0.17
F25R	-0.568 ± 0.067
F25K	-0.62 ± 0.054

Variants of: B2
Assay: as above
Details: Homo sapiens

Variant	abundance fitness
S77L	-0.932 ± 0.48
S77P	-0.457 ± 0.23
S77T	-0.714 ± 0.37
S77C	-0.327 ± 0.44
S77G	-0.35 ± 0.13
S77A	-0.003 ± 0.18
I81K	-0.186 ± 0.24
I81S	-0.043 ± 0.38
I81N	0.165 ± 0.49
I81R	-0.074 ± 0.14
I81C	0.106 ± 0.16
I81D	0.114 ± 0.27
I81Q	0.045 ± 0.21
I81M	-0.31 ± 0.23
I81L	-0.065 ± 0.29
I81E	0.026 ± 0.14
S72Y	0.173 ± 0.21
S72A	-0.016 ± 0.11
S72E	0.125 ± 0.35
S72F	-0.066 ± 0.15
S72R	-0.154 ± 0.14
S72P	0.069 ± 0.16
S72T	-0.1 ± 0.33
S72M	-0.149 ± 0.19
S72Q	0.086 ± 0.25

Variant	abundance fitness
S72D	-0.109 ± 0.32
S72C	-0.107 ± 0.3
S72N	-0.204 ± 0.25
S72L	0.002 ± 0.14
S72W	0.007 ± 0.15
Q76L	-0.129 ± 0.27
Q76E	-0.145 ± 0.29
Q76W	-0.441 ± 0.39
Q76G	-0.066 ± 0.34
A71R	0.007 ± 0.087
A71K	0.144 ± 0.32
A71H	0.052 ± 0.33
A71W	0.018 ± 0.092
A71P	0.128 ± 0.43
A71M	0.022 ± 0.13
A71S	-0.125 ± 0.12
A71L	-0.223 ± 0.17
A71D	-0.308 ± 0.49
A71G	0.01 ± 0.14
A71E	0.028 ± 0.21
A71Q	-0.187 ± 0.3
A71C	-0.048 ± 0.16
G69L	0.022 ± 0.13
G69E	0.006 ± 0.21
G69Q	-0.166 ± 0.19

Variant	abundance fitness
G69W	-0.018 ± 0.12
G69C	-0.242 ± 0.21
G69K	-0.127 ± 0.18
G69S	0.071 ± 0.1
G69P	-0.294 ± 0.18
G69I	0.09 ± 0.22
G69R	0.012 ± 0.11
G69V	-0.05 ± 0.12
G69M	0.052 ± 0.23
G69D	-0.155 ± 0.13
W68C	-0.026 ± 0.18
W68R	-0.169 ± 0.11
W68A	-0.167 ± 0.14
W68L	-0.044 ± 0.17
W68M	0.131 ± 0.14
W68P	-0.289 ± 0.15
W68K	-0.067 ± 0.15
W68T	0.089 ± 0.2
W68E	-0.059 ± 0.14
W68G	-0.139 ± 0.11
W68Y	-0.425 ± 0.45
W68S	0.006 ± 0.085
A74R	0.118 ± 0.24
A74V	0.086 ± 0.2
A74Q	0.034 ± 0.17

Variant	abundance fitness
A74C	0.203 ± 0.16
A74G	0.046 ± 0.12
A74S	-0.111 ± 0.17
A74T	-0.159 ± 0.16
A74E	-0.139 ± 0.29
A74L	0.113 ± 0.12
A74M	-0.011 ± 0.19
V75T	-0.211 ± 0.15
V75E	-0.821 ± 0.22
V75W	-0.105 ± 0.16
V75A	-0.021 ± 0.16
V75R	-0.665 ± 0.23
V75G	0.052 ± 0.16
V75L	-0.046 ± 0.12
V75F	0.146 ± 0.21
V75D	-0.724 ± 0.28
R79A	0.147 ± 0.37
R79V	-0.596 ± 0.26
R79K	-0.358 ± 0.33
R79L	-0.406 ± 0.16
R79E	-0.191 ± 0.37
R79M	-0.346 ± 0.2
R79Q	-0.058 ± 0.33
R79I	-0.294 ± 0.24
R79T	0.021 ± 0.21

Variant	abundance fitness
R79S	-0.036 ± 0.06
R79W	-0.419 ± 0.33
R79G	-0.413 ± 0.14
R80G	0.028 ± 0.13
R80H	-0.573 ± 0.33
R80S	-0.023 ± 0.12
R80V	0.062 ± 0.14
R80A	-0.381 ± 0.27
R80L	0.02 ± 0.17
R80C	0.059 ± 0.36
R80E	-0.253 ± 0.28
R80Q	-0.491 ± 0.24
R80Y	-0.919 ± 0.49
P73E	-0.215 ± 0.24
P73R	-0.006 ± 0.11
P73F	0.27 ± 0.31
P73G	-0.309 ± 0.16
P73H	0.006 ± 0.31
P73W	0.089 ± 0.13
P73T	-0.082 ± 0.39
P73L	0.338 ± 0.39
P73D	-0.23 ± 0.24
D67Y	-0.144 ± 0.27
A70E	-0.004 ± 0.093
A70M	-0.023 ± 0.13

Variant	abundance fitness
A70F	-0.025 ± 0.18
A70Q	-0.057 ± 0.14
A70I	0.111 ± 0.18
A70Y	0.258 ± 0.19
A70W	-0.147 ± 0.16
A70H	0.32 ± 0.27
A70G	0.108 ± 0.099
A70T	-0.037 ± 0.2
A70P	0.042 ± 0.3
A70R	0.104 ± 0.093
A70V	-0.003 ± 0.11
A70K	0.169 ± 0.37
A70D	-0.017 ± 0.16
F78S	-0.37 ± 0.21
F78H	-0.229 ± 0.37
F78K	-0.771 ± 0.38
F78P	-0.869 ± 0.43
F78A	-0.136 ± 0.17
F78R	-1.11 ± 0.38
F78Y	-0.023 ± 0.24
F78V	-0.039 ± 0.16
F78I	-0.228 ± 0.33
F78L	0.059 ± 0.3
